In this experiment the target is SARS-CoV-2 spike protein receptor binding domain (RBD) (SARS-CoV-2, UniProt P0DTC2 319-541). The experiment is described as follows: SPR.

For 2 molecules, Kd results are on record in PMC7817217 (Proceedings of the National Academy of Sciences of the …, 2020).

Numbering of substitutions follows the chain as printed.

As a reminder, the Kd is the concentration at which binding is half-saturated. The low end stands for higher affinity, the high end for lower affinity.

B1: bACE2-Rm (H41-Q42) mutant, mouse Fc tagged (Fc fusion)
chain: STTEDEAKKFLDKFNSKAEDLSHQSSLASWDYNTNISDENVQKMDEAGAKWSAFYEEQSKLAKNYPLEEIQNDTVKRQLQILQQSGSPVLSEDKSKRLNSILNAMSTIYSTGKVCKPNNPQECLLLEPGLDNIMGTSKDYNERLWAWEGWRAEVGKQLRPLYEEYVVLKNEMARGYHYEDYGDYWRRDYETEESSGPGYSRDQLMKDVDRIFTEIKPLYEHLHAYVRAKLMDTYPLHISPTGCLPAHLLGDMWGRFWTNLYPLTVPFGQKPNIDVTDAMLNQGWDANRIFKEAEKFFVSVSLPKMTEGFWNKSMLTEPGDGRKVVCHPTAWDLGKGDFRIKMCTKVTMEDFLTAHHEMGHIQYDMAYASQPYLLRNGANEGFHEAVGEVMSLSVATPKHLKTMGLLSPDFREDDETEINFLLKQALNIVGTLPFTYMLEKWRWMVFKGEIPKEEWMKKWWEMKREIVGVVEPVPHDETYCDPASLFHVANDYSFIRYYTRTIFEFQFHEALCRIAQHNGPLHKCDISNSTDAGKKLHQMLSVGKSQAWTKTLEDIVDSRNMDVGPLLRYFKPLYTWLQEQNRKSYVGWNTDWSPYAD
Take B1: binding was put at a Kd of 2.22 µM. This lies in the single-digit micromolar range.

B2: bACE2-Rm (Y41-Q42) mutant, mouse Fc tagged (Fc fusion)
chain: B1 chain with H23Y
With B2, the dissociation constant (Kd) was found to be 0.25 µM.
